Tests used:
[1] = molecular target: T1, human Ly6E (native, in human tumor cells, xenograft tumors and human tissues) (human, UniProt Q16553 21-101); experiment: cell-based or functional assay
T1 sequence: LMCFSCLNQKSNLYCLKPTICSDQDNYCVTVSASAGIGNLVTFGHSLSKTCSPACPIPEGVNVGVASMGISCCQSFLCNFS

[2] = molecular target: T2, cynomolgus monkey Ly6E (native, in cynomolgus monkey tissues) (cynomolgus monkey, UniProt Q16553 21-101 (human entry)); experiment: IHC on normal cynomolgus monkey tissues
T2 construct: Endogenous protein in normal cynomolgus monkey tissue sections (IHC); also called cyno Ly6E
T2 chain: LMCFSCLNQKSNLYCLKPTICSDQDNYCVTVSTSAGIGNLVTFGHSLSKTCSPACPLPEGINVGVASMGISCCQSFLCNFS

| Binder | EC50 (cell killing, CellTiter-Glo, HCC1569 X2 cells, 5 days) [1] | binding result [2] |
| --- | --- | --- |
| humanized anti-Ly6E (hu9B12 v12) ADC (MC-vc-PAB-MMAE) (antibody, V domains shown) VH: EVQLVESGPALVKPTQTLTLTCTVSGFSLTGYSVNWIRQPPGKALEWLGMIWGDGSTDYNSALKSRLTISKDTSKNQVVLTMTNMDPVDTATYYCARDYYFNYASWFAYWGQGTLVTVSS VL: DIQMTQSPSSLSASVGDRVTITCSASQGISNYLNWYQQKPGKTVKLLIYYTSNLHSGVPSRFSGSGSGTDYTLTISSLQPEDFATYYCQQYSELPWTFGQGTKVEIK | 4 nM |  |
| rabbit anti-Ly6E antibody clone GEN-93-8-1 (antibody, V domains shown, Rabbit monoclonal IgG; also called antibody GEN-93-8-1) VH: QSVEESGGRLVTPGTPLTLTCATSGFSLSIYDMTWVRQAPGKGLEWIGVIYTSGGAYYANWAKGRFTISRTSTTVDLRMTSPTTEDTATYFCVRNWAHGSDLWGQGTLVTVSS VL: DPVVTQTPSSASAAVGGTVSISCQSSQSVYNNNYLGWYQQKPGQPPKLLIYDASKLASGVPSRFKASGSGTQFALTISDLECDDAATYYCVGGYPGSLNVFGGGTEVVVK |  | binds |

Reference: patent US20170058042A1 (Genentech, published 2017)
